The source of these data is PMC10937712, “Natural variation in OsMYB8 confers diurnal floret opening time divergence between indica and japonica subspecies”.

This data set concerns the target T1, OsMYB8 (Oryza sativa, UniProt A0A0P0V5Q1 51-278).
T1 sequence: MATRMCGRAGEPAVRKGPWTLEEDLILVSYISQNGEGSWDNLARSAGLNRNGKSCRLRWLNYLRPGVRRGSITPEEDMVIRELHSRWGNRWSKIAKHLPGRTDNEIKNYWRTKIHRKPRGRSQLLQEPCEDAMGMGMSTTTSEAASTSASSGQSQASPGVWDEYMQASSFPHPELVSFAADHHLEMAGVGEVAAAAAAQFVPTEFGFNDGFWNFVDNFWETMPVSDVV
Briefly: EMSA; Beyotime chemiluminescent EMSA kit binding buffer (composition, salt, pH not stated), 20 min, room temperature, 5% native PAGE; 5x and 20x cold competitor. The settings on record: protein: recombinant; tags: N-terminal GST (pGEX-4T1); label: biotin; blunt.

B1: JAR1-P1-probe (dsDNA)
DNA 1: AAAATAAATGACTTAGGAAAGAACCAAAACATCTTACATTATAGTATAAAGAAG
DNA 2: CTTCTTTATACTATAATGTAAGATGTTTTGGTTCTTTCCTAAGTCATTTATTTT
For the molecule B1, the binding result was “binds”.

B2: JAR1-P3-probe (dsDNA)
DNA 1: CAGTGTACCTAGTGATGTACCCGCCGAATACGTACGCGTGTATGCATGGGTAGAGA
DNA 2: TCTCTACCCATGCATACACGCGTACGTATTCGGCGGGTACATCACTAGGTACACTG
Take B2: the binding result is “binds”.
